In publication PMC3462262 (Molecular cell, 2012):

Biological target: Ub subunit of the UbcH5c-O~Ub conjugate (UniProt P0CG48 1-76, C-terminus oxyester-linked to Ser85 of UbcH5c)
Experiment: NMR titration

B1: UbcH5c subunit of the UbcH5c-O~Ub conjugate (Cys85Ser, S22R) (enzyme)
chain: not shown
modifications: active site Ser85 oxyester-linked to the Ub C-terminus
B1: binds.
